Reference: patent publication US8039432B2, “Method of treatment of diabetes and/or obesity with reduced nausea side effect” (Conjuchem, LLC, priority 2005, dated 2011)
Like-named read-outs stand apart in the source and are kept apart here.

Experiments:
[1] = tested on: male Sprague-Dawley rats; experiment: Kaolin intake (pica) test; details: for kaolin intake after dosing relative to 0.9% NaCl: LiCl IP, exendin-4 and CJC-1134-PC 0.5 nmol/kg SC
Description: (§1) Ninety male Sprague-Dawley rats of 6 weeks in age were housed individually and given food and water ad libitum. Habituation to kaolin was achieved by offering fresh blocks of kaolin daily for 8 days before dosing. Rats were then assigned to nine treatment groups (n=10/group).
(§2) Immediately following injection, animals were offered a fresh kaolin block in addition to food and water. Kaolin intake was measured every hour for a four-hour period immediately after dosing, and also at 6, 8, and 24 hours post dose (FIG. 3).

[2] = tested on: subjects; details: subcutaneous injection, 1.5 nmol/kg body weight and higher; cited from earlier work
[3] = tested on: monkeys; experiment: Monkey toxicity study (7-day and 28-day); assay type: in vivo
Description: Recombinant human albumin was also dosed at 9 mg/kg as an additional control.

[4] = tested on: female diabetic db/db mice; assay type: in vivo, mouse; details: for abnormal clinical signs: mouse, in vivo
Description: Blood glycemia was recorded at the following time points: pre-dose, 1, 3, 6, 24, 30, 48, 52, 74 and 101 hours post dose using a handheld glucometer (Accu-check compact, Roche Diagnostics, Canada). Food and water intake were recorded at the following timepoints: 0 to 6, 6 to 24, 24 to 30, 30 to 48, 48 to 72 and 72 to 101 hours post dose.

[5] = tested on: Sprague Dawley rats; experiment: Rat toxicity study (7-day and 28-day); assay type: in vivo
Description: Immediately following injection, rats were housed individually, and food consumption and changes in body weights were monitored. […] However, by day 4, food consumption was similar to that observed in rats receiving vehicle only (FIG. 4). […] (FIG. 5).
Recombinant human albumin (rHA) was also dosed at 23 mg/kg as an additional control.

[6] = tested on: male Sprague-Dawley rats; details: rat, in vivo
Description: One model for studying gastrointestinal malaise in response to administration of a test agent is the conditioned taste aversion test (Peeters and Broekkamp, 1994, J. Steroid Biochem. Mol. Biol., 49:417-427). Conditioned taste aversion is a form of associative learning in which animals learn to avoid flavors of substances where initial ingestion of the substance was followed by illness. In conditioned taste aversion, animals learn to associate a flavor, or conditioned stimulus, with the aversive effects of an administered agent, or unconditioned stimulus. Following conditioned stimulus—unconditioned stimulus pairings, animals reduce their consumption of the conditioned stimulus, and/or show a preference for other tastes when later presented with the conditioned flavor. […] The conditioned stimulus was 0.1% saccharin flavored water with high palatability. […]
Following injection, all groups were given food ad libitum and 2 bottles of water. At 72 h and 96 h post dose, a choice of tap water or 0.1% saccharin solution (conditioned stimulus) was offered, and intake of both solutions was measured for 12 hours. Mean saccharin preference ratios, representing the percentage of saccharin solution consumed relative to total liquid intake, were determined for each group (FIGS. 1 and 2).

[7] = tested on: Male Zucker Diabetic Fatty (ZDF) rats; experiment: Anti-obesity test in ZDF rats; assay type: in vivo, rat; details: for cumulative food intake relative to 0.9% NaCl group / cumulative weight gain compared to 0.9% NaCl: 25 days; for cumulative weight gain compared to 0.9% NaCl: four weekly SC injections, 100 and 200 nmol/kg; for day on which decrease in cumulative food intake reached statistical significance: relative to 0.9% NaCl group, weekly SC injections
Description: Control animal were injected with 0.9% NaCl. Animals were weighed twice a week and food intake was measured daily for the first week and four times a week thereafter for a total of 25 days. Statistical analysis was performed using two-way Analysis of Variance (ANOVA) followed by the Tukey's pair-wise comparison test. Significance was considered when P value was less than 0.05.

[8] = tested on: patients with stable Type 2 diabetes; experiment: Phase I/II single escalating dose clinical study of CJC-1134-PC; assay type: in vivo, human; details: for Nausea (%) / Vomiting (%): N=6
Description: Patients enrolled in the trial had HbA1c levels between 6.5% and 11%. Patients previously treated with oral anti-diabetic agents discontinued therapy at least 1 week prior to dosing. […] Injections were performed with a 29 gauge needle. Each cohort consisted of 7 patients (6 active, 1 placebo). The mean glucose values at baseline of the cohorts (without placebo) were 15.6, 12.2, 12.1, 11.2, 9.6 and 15.3 mmol/L, respectively.
The efficacy parameters were based on the group mean and individual mean glucose values. Glucose was measured 6 times per day (fasting, 2-hour post-breakfast, pre-lunch, 2-hour post-lunch, pre-dinner and bedtime) during the first week and 3 times per day (fasting, 2-hour post-breakfast and bedtime) for the remaining 5 weeks of the study. In addition, a placebo group was constructed for data analysis by pooling the patients (one per cohort) that received placebo during the study. […] At the third cohort (1250 micrograms), the mean glucose reduction from baseline for the first week was 19% (ranging from 15% to 24% with a mean reduction on day 7 of 20%), giving an average glucose value for the week of 9.8 mmol/L. This glucose reduction was significant against baseline (p=0.0007) and against placebo (p=0.0045). […] The glucose reductions of the subsequent cohorts were of similar magnitude and duration and confirmed this response. At the 2500 microgram cohort, the average glucose value for the first week was reduced to 9.5 mmol/L; the value for the 5000 microgram cohort for the first week was reduced to 8.4 mmol/L. (The American Diabetes Association (ADA) has a recommended target of HbA1C<7%; a mean daily glucose level of 9.5 mmol/L corresponds to an HbA1C level of 7%).

[9] = tested on: male Sprague-Dawley rats; details: rat, in vivo; remark: listed apart in the source
Description: as §1, §2

[10] = 1250 μg (17.6 nmoles) single SC
[11] = 2500 μg (35.2 nmoles) single SC
[12] = 3750 μg (52.8 nmoles) single SC
[13] = 5000 μg (70.4 nmoles) single SC
[14] = first four cohorts (310, 620, 1250 and 2500 μg)

For `[Cl-].[Li+]` [LiCl, Lithium chloride, reference compound], which “kaolin intake after dosing relative to 0.9% NaCl” value [1] is on record?
The value was “significant kaolin intake after 1 h”.

Which nausea and vomiting [2] does the source give for “GLP-1: proglucagon-derived peptide secreted from intestinal L-cells; incretin” here?
Its nausea and vomiting is “lead to nausea and, less often, vomiting in a significant proportion of subjects”.

With “exendin-4(1-39) Lys^40 (ε-AEEA-MPA)-NH2 conjugated with albumin [CJC-1134-PC]” as the compound, how does the “clinical chemistry, hematology, urinalysis, organ weights, macroscopic evaluations” value ([3]; monkey 7-day study) read?
The value was “no effects on clinical chemistry, hematology, urinalysis, or organ weights, or on macroscopic evaluations”.

And the “mortality or serious signs of toxicity” value ([3]; monkey 7-day study, 0.4, 2 and 10 mg/kg/day SC)?
Its value is “no mortality or serious signs of toxicity were observed”.

What about the “food consumption (number of biscuits per day)” value ([3]; monkey 7-day study, days 1-3, all groups including vehicle control, comparable by days 4-7) of the same compound?
The value was “Initial decreases in food consumption”.

And the body weight ([3]; monkey 7-day study, moderately attenuated by day 7)?
Its body weight is “dose-dependent decrease in body weight by day 3”.

And the body weight ([3]; monkey 28-day study)?
Its body weight is “dose dependent decrease in body weight was observed throughout the 28-day period”.

And the clinical signs ([3]; monkey 28-day study)?
Its clinical signs is “transient decrease in activity, hunched posture, and decreased fecal output”.

And the macroscopic evaluations ([3]; monkey 28-day study)?
Its macroscopic evaluations is “no effects on macroscopic evaluations”.

What about the food consumption ([3]; monkey 28-day study, 10 mg/kg, comparable across groups by day 7) of the same compound?
Its food consumption is “significantly reduced at 10/mg/kg on days 2 and 3”.

What about the tolerability ([3]; monkeys, up to 10 mg/kg) of the same compound?
Its tolerability is “generally well tolerated”.

And the “kaolin intake after dosing relative to 0.9% NaCl” value [1]?
The value was “kaolin intake was only moderately increased after 6 h”.

What about the “kaolin intake relative to 0.9% NaCl, first 2 h” value ([1]; first 2 h post dose) of the same compound?
The value was “Minimal kaolin intake”.

What about the “blood glucose levels compared to 100 nmol/kg unconjugated exendin-4” value ([4]; 100 nmol/kg single SC, 24 h post dose) of the same compound?
Its value is “significantly lower”.

What about the “blood glucose levels compared to unconjugated exendin-4” value ([4]; 100 nmol/kg single SC, out to 48 h post dose) of the same compound?
The value was “remained lower”.

And the “food and water consumption compared to unconjugated exendin-4” value ([4]; 24-47 h post dose)?
The value was “remained lower”.

And the “food and water consumption compared to unconjugated exendin-4” value ([4]; after 24 hours)?
The value was “significantly reduced”.

And the “blood glucose levels compared to unconjugated exendin-4” value ([4]; after 72 h)?
The value was “comparable”.

And the “food consumption relative to exendin-4 treated mice” value ([4]; after 74 h, maintained out to 101 h post dose)?
Its value is “only moderately lower”.

What about the abnormal clinical signs [4] of the same compound?
Its abnormal clinical signs is “No abnormal clinical signs”.

And the “water consumption relative to exendin-4 treated mice” value ([4]; out to 101 h post dose)?
Its value is “moderately lower”.

What about the “clinical chemistry, hematology, urinalysis, organ weights, macroscopic evaluations” value ([5]; rat 7-day study) of the same compound?
Its value is “no effects on clinical chemistry, hematology, urinalysis, or organ weights, or on macroscopic evaluations”.

What about the “mortality or serious signs of toxicity” value ([5]; rat 7-day study, 1, 5 or 25 mg/kg/day SC) of the same compound?
Its value is “no mortality or serious signs of toxicity were observed”.

And the food consumption ([5]; rat 7-day study, 5 and 25 mg/kg/day SC, similar to vehicle by day 4)?
The food consumption was “dose dependent decrease in food consumption was observed at days 1-3”.

And the macroscopic evaluations ([5]; rat 28-day study)?
The macroscopic evaluations was “no effects on macroscopic evaluations”.

What about the food consumption ([5]; rat 28-day study, 25 mg/kg, comparable across groups by day 8) of the same compound?
The food consumption was “decrease in food consumption was observed at 25 mg/kg from days 1-7”.

What about the body weight ([5]; rat 28-day study, 25 mg/kg, weight gain comparable days 4-28) of the same compound?
The body weight was “Decreases in body weight were also observed at the 25 mg/kg/doses at days 1-4”.

And the “activity and fecal output” value ([5]; rat 28-day study, following injections)?
Its value is “transient decrease in activity and fecal output”.

And the tolerability ([5]; rats, up to 25 mg/kg)?
The tolerability was “generally well tolerated”.

And the “taste aversion response compared to unconjugated exendin-4” value [6]?
The value was “significantly lower taste aversion response”.

What about the “day from which reduction of cumulative weight gain was statistically significant” value ([7]; 100 nmol/kg, p≦0.05) of the same compound?
The value was 11 days.

What about the “day from which reduction of cumulative weight gain was statistically significant” value ([7]; 200 nmol/kg, p≦0.01) of the same compound?
The value was 4 days.

What about the “cumulative food intake relative to 0.9% NaCl group” value [7] of the same compound?
The value was “Reduction in cumulative food intake”.

And the “cumulative weight gain compared to 0.9% NaCl” value [7]?
The value was “significantly reduced”.

What about the “day on which decrease in cumulative food intake reached statistical significance” value [7] of the same compound?
Its value is 9 days.

What about the “Nausea (%)” value ([8]; 310 μg (4.4 nmoles) single SC) of the same compound?
The value was 0%.

And the “Vomiting (%)” value ([8]; 310 μg (4.4 nmoles) single SC)?
Its value is 0%.

What about the “Nausea (%)” value ([8]; 620 μg (8.7 nmoles) single SC) of the same compound?
Its value is 0%.

And the “Vomiting (%)” value ([8]; 620 μg (8.7 nmoles) single SC)?
Its value is 0%.

And the “Nausea (%)” value [8, 10]?
Its value is 0%.

And the “Vomiting (%)” value [8, 10]?
Its value is 0%.

What about the “Nausea (%)” value [8, 11] of the same compound?
Its value is 0%.

And the “Vomiting (%)” value [8, 11]?
Its value is 0%.

And the “Nausea (%)” value [8, 12]?
The value was 17%.

What about the “Vomiting (%)” value [8, 12] of the same compound?
The value was 17%.

And the “Nausea (%)” value [8, 13]?
Its value is 50%.

And the “Vomiting (%)” value [8, 13]?
The value was 17%.

And the “average glucose value for the first week” value ([8]; 1250 micrograms)?
Its value is 9.8 mmol/L.

What about the “duration of glucose lowering effect” value ([8]; 1250 micrograms) of the same compound?
The value was “more than 2 weeks”.

What about the “mean glucose reduction from baseline on day 7” value ([8]; 1250 micrograms) of the same compound?
Its value is 20%.

What about the “mean glucose reduction from baseline for the first week” value ([8]; 1250 micrograms, p=0.0007 vs baseline, p=0.0045 vs placebo) of the same compound?
The value was 19%.

What about the “average glucose value for the first week” value ([8]; 2500 microgram cohort) of the same compound?
The value was 9.5 mmol/L.

And the “average glucose value for the first week” value ([8]; 5000 microgram cohort)?
The value was 8.4 mmol/L.

And the “symptoms (headache, dizziness, light-headedness without documented hypoglycaemia)” value ([8]; 5000 microgram cohort)?
Its value is “symptoms linked to an over stimulation of the GLP-1 receptors were observed”.

What about the injection site reactions [8, 14] of the same compound?
The injection site reactions was “no injection site reactions”.

And the safety and tolerability [8, 14]?
Its safety and tolerability is “no safety or tolerability issues”.

What about the efficacy on glucose ([8]; first two cohorts (310 and 620 micrograms)) of the same compound?
Its efficacy on glucose is “Limited or no efficacy”.

And the “average weight loss at day 7” value ([8]; first two non-active cohorts)?
Its value is 0.4 kg.

What about the gastric stasis ([8]; in each of the 3750 and 5000 μg cohorts, post-lunch on day one) of the same compound?
The gastric stasis was “one mild and transient case of short-term gastric stasis”.

What about the “dose linearity of plasma concentrations” value ([8]; single SC dose, 310-5000 μg) of the same compound?
Its value is “dose linear”.

And the “average weight loss at day 7” value ([8]; three following cohorts where activity was observed on glucose)?
Its value is 0.9 kg.

With exendin-4(1-39) [reference compound] as the compound, how does the abnormal clinical signs [4] read?
Its abnormal clinical signs is “No abnormal clinical signs”.

What about the “kaolin intake relative to 0.9% NaCl, first 2 h” value [9] of the same compound?
The value was “Minimal kaolin intake”.

What about the “conditioned taste aversion (saccharin preference ratio compared to vehicle control)” value [6] of the same compound?
Its value is “decreased significantly the preference saccharine ratio”.

And the “cumulative food intake relative to 0.9% NaCl group” value [7]?
Its value is “Reduction in cumulative food intake”.

And the “cumulative weight gain compared to 0.9% NaCl” value [7]?
Its value is “not significant”.

And the “day on which decrease in cumulative food intake reached statistical significance” value [7]?
Its value is 16 days.
